Substitutions are numbered along the chain they refer to. In names and notes the source's numbering stands.
T1: recombinant mouse IL-1β (R&D Systems Cat#401-ML) (mouse, UniProt P10749 118-269)
T1 construct: also called mIL-1β
T1 sequence (looked up): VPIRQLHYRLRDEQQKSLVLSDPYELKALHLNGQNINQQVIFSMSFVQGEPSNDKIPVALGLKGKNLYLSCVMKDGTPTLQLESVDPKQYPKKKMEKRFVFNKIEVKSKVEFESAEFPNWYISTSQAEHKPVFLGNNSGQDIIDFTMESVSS

T2: recombinant mouse IL-18 (MBL Cat#B004-5) (mouse, UniProt P70380 36-192)
T2 construct: also called mIL-18
T2 sequence (looked up): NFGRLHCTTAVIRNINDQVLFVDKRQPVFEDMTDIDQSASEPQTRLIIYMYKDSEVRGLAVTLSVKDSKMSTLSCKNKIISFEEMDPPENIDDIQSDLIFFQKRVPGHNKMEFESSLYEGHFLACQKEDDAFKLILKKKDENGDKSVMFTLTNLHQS

T3: recombinant mouse IL-17F (R&D Systems Cat#2057-IL/CF) (mouse, UniProt Q7TNI7 29-161)
T3 construct: also called mIL-17F
T3 sequence (looked up): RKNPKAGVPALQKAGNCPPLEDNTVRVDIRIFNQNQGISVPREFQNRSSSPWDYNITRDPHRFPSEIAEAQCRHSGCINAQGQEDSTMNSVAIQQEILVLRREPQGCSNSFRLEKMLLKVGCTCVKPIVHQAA

T4: recombinant mouse IL-2 (R&D Systems 402-ML-020/CF) (mouse, UniProt P04351 21-169)
T4 construct: also called mIL-2
T4 sequence (looked up): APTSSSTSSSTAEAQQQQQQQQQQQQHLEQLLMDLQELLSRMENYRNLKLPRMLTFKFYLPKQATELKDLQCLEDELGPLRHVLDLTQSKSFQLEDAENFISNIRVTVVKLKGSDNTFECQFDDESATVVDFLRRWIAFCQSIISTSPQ

T5: recombinant mouse IL-6 (R&D Systems Cat#406-ML-010/CF) (mouse, UniProt P08505 25-211)
T5 construct: coated at 0.5 µg/ml; also called mIL-6
T5 sequence (looked up): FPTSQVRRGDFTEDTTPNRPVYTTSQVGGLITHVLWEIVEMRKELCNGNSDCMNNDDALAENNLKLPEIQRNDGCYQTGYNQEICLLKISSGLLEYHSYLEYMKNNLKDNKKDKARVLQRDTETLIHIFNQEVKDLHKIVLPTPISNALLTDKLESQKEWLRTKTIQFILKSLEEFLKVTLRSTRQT

T6: recombinant mouse IL-12 (R&D Systems Cat#419-ML-010/CF) (mouse, UniProt P43431 23-215; P43432 23-335)
T6 construct: coated at 0.5 µg/ml; also called mIL-12
T6 sequence (looked up) 1: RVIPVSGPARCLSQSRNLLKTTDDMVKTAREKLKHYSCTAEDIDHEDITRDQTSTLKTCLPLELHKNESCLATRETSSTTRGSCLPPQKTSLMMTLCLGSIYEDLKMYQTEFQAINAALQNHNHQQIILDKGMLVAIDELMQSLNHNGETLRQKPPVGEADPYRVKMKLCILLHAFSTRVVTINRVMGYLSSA
T6 sequence (looked up) 2: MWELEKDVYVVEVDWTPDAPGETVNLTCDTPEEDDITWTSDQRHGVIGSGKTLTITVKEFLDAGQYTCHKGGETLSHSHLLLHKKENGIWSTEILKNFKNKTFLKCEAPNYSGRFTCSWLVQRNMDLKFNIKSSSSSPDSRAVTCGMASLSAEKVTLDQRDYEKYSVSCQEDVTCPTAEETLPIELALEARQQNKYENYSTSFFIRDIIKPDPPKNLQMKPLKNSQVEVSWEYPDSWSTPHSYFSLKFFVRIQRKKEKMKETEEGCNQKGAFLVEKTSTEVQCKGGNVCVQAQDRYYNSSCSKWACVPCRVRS

T7: recombinant mouse IL-17A (SEQ ID NO: 83) (mouse, UniProt Q62386 26-158)
T7 construct: also called mIL-17A; rmIL-17A
T7 sequence: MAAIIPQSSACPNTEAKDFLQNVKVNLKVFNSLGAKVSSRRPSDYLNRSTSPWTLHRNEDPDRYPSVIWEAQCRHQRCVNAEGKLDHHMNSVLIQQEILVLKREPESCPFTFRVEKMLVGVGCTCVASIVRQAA

T8: recombinant mouse IL-17A/F (R&D Systems Cat#5390-IL) (mouse, UniProt Q62386 26-158; Q7TNI7 29-161, limits assumed)
T8 construct: bought heterodimer; also called mIL-17A/F; rmIL-17A/F
T8 sequence (looked up) 1: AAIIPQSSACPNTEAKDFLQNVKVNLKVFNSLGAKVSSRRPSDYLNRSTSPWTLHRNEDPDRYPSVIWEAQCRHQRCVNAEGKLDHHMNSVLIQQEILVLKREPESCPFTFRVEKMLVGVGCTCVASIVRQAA
T8 sequence (looked up) 2: T3 sequence (looked up)

T9: recombinant mouse IFN-γ (R&D Systems Cat#485-MT) (mouse, UniProt P01580 23-155)
T9 construct: also called mIFN-γ
T9 sequence (looked up): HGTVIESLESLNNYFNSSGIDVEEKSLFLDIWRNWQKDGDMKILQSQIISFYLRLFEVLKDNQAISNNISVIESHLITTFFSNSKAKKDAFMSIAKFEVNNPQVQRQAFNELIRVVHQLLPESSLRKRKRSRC

T10: recombinant mouse IL-23 (R&D Systems Cat#1887-ML) (mouse, UniProt Q9EQ14 22-196; P43432 23-335)
T10 construct: also called mIL-23
T10 sequence (looked up) 1: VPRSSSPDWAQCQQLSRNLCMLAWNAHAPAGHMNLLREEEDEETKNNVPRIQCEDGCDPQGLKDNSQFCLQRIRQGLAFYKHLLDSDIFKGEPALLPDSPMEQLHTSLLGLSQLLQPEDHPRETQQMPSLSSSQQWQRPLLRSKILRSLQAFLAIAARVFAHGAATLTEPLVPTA
T10 sequence (looked up) 2: T6 sequence (looked up) 2

B1: XAB4 (antibody, human IgG1, kappa, V domains shown)
VH: EVQLVESGGDLVQPGGSLRLSCAASGFTFSSYWMSWVRQAPGKGLEWVANIKQDGSEKYYVDSVKGRFTISRDNAKNSLYLQMNSLRAEDTAVYYCARDRGSLYYWGQGTLVTVSS
VL: AIQLTQSPSSLSASVGDRVTITCRPSQGINWELAWYQQKPGKAPKLLIYDASSLEQGVPSRFSGSGSGTDFTLTISSLQPEDFATYYCQQFNSYPLTFGGGTKVEIKR
notes: also called MB435 N56Q
B2: XAB1 (antibody, human IgG1, kappa, V domains shown)
VH: B1 VH
VL: B1 VL with N30I, W31S, E32A, Q56N
notes: human IgG1/kappa monoclonal antibody; also called parental XAB1; XAB1 IgG

Legend:
Assay in all cases: ELISA, coated cytokine, Ab 10 µg/ml
[1] = target: T1, recombinant mouse IL-1β (R&D Systems …)
Experimental: (§1) The antibodies of the disclosure were added at 10 μg/ml (100 μl/well) for 3 h at room temperature. […] They were added at 1 or 5 μg/ml, in PBS, 0.02% NaN₃ for 3 h at RT.
(§2) Plates were then washed 4 times with PBS/0.05% Tween 20/0.02% NaN₃. Then, an alkaline phosphatase-conjugated goat anti-human IgG antibody (Sigma Cat# A9544) was added to the wells with human antibodies at a dilution of 1/20000 (100 μl/well). An alkaline phosphatase-conjugated goat anti-mouse IgG antibody (Sigma Cat# A1047) was added to the wells with mouse antibodies at a dilution of 1/10000 (100 μl/well). An alkaline phosphatase-conjugated rabbit anti-goat IgG antibody (Sigma Cat# A7650) was added to the wells with goat antibodies at a dilution of 1/1000 (100 μl/well) and an alkaline phosphatase-conjugated rabbit anti rat-IgG antibody (Sigma Cat# A6066) was added to the wells with rat antibodies at a dilution of 1/20000 (100 μl/well).

[2] = target: T2, recombinant mouse IL-18 (MBL Cat#B004-5)
Experimental: as §1, §2

[3] = target: T3, recombinant mouse IL-17F (R&D Systems …)
Experimental: as §1, §2

[4] = target: T4, recombinant mouse IL-2 (R&D Systems …)
Experimental: as §1, §2

[5] = target: T5, recombinant mouse IL-6 (R&D Systems …)
Experimental: as §1, §2

[6] = target: T6, recombinant mouse IL-12 (R&D Systems …)
Experimental: as §1, §2

[7] = target: T7, recombinant mouse IL-17A (SEQ ID NO: 83)
Experimental: as §1, §2

[8] = target: T8, recombinant mouse IL-17A/F (R&D Systems …)
Experimental: as §1, §2

[9] = target: T9, recombinant mouse IFN-γ (R&D Systems …)
Experimental: as §1, §2

[10] = target: T10, recombinant mouse IL-23 (R&D Systems …)
Experimental: as §1, §2

Binder	O.D. [1] [O.D.]	O.D. [2] [O.D.]	O.D. [3] [O.D.]	O.D. [4] [O.D.]	O.D. [5] [O.D.]	O.D. [6] [O.D.]	O.D. [7] [O.D.]	O.D. [8] [O.D.]	O.D. [9] [O.D.]	O.D. [10] [O.D.]
B1	0.022	0.054	0.034	0.024	0.031	0.035	3.29	3.34	0.038	0.058
B2	0.007	0.022	-0.058	0.022	0.038	-0.005	2.97	3.17	0.048	0.009

Source: patent US20180194839A1 (Novartis, published 2018)
